# Reference: PMC7397135
# Molecular target: recombinant heterodimer of human FCGRT/B2M (human neonatal IgG Fc receptor) (human) (UniProt P55899)
# Assay: electrochemical receptor sensor (amperometric I-T, time-current method); hFcγRn adsorbed in two layers on a gold nanoparticle-chitosan glassy carbon electrode with thionine and HRP as signal amplification, blocked with BSA; IgG in solution; constant voltage -0.38 V; data collected after 20 s; 8 mmol/L H2O2 in the test substrate; ultrapure water as blank; change rate of response current against IgG concentration, Ka by the double reciprocal (Lineweaver-Burk) method
row,Ka (interconnected allosteric constant),Substance
1,1.2e-22 mol/L,Horse IgG (antibody)
2,1.02e-23 mol/L,Human IgG (antibody)
3,1.59e-22 mol/L,Bovine IgG (antibody)
4,2.17e-21 mol/L,Sheep IgG (antibody)
5,1.14e-21 mol/L,Donkey IgG (antibody)
6,2.29e-21 mol/L,Rabbit IgG (antibody)
7,8.61e-20 mol/L,Quail IgY (antibody)
